Patent US20070015230A1 (AMERICAN NATIONAL RED CROSS, published 2007)

Molecular target: T1, Human CRP (Novagen) (human, UniProt P02741 19-224)
T1 construct: also called C-reactive protein
T1 sequence (looked up): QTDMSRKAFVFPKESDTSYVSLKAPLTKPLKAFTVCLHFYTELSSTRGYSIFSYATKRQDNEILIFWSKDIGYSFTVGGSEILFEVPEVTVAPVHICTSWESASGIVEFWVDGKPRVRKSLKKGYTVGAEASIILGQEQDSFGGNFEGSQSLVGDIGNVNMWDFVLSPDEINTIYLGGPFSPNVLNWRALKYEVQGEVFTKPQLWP
Assay: Bead Blot of library beads loaded from CRP-spiked whole blood, detected with an anti-CRP antibody, confirmed by re-incubation

GNQKWG (also called CRP ligand): binds.
